Experimental data from publication PMC4763223.

Tests used:
Experiment in all cases: GEMMA (gas-phase electrophoretic mobility macromolecule analysis); DNA-free protein; equilibrated into 100 mM ammonium acetate pH 7.8, diluted to 20 mM ammonium acetate and 0.005% Tween-20; low flow-rate (pressure 2 Psi); non-tagged Kat1 at 0.085 mg/ml
[1] = molecular target: Glutathione S-transferase (GST) alone
[2] = molecular target: Glutathione S-transferase (GST)-tagged Kat1+G (Kluyveromyces lactis hAT-transposase 1) (Kluyveromyces lactis)
[3] = molecular target: non-tagged Kat1 (GST-tag cleaved from GST-Kat1 with thrombin) (Kluyveromyces lactis)

Glutathione S-transferase (GST) alone, sequence (P08515 2-218): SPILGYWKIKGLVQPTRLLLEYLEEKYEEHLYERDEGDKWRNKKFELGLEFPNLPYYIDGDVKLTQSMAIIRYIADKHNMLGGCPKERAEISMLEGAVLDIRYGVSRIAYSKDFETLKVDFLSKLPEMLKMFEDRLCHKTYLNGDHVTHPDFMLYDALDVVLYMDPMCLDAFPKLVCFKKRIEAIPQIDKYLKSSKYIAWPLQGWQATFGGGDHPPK

Glutathione S-transferase (GST) alone (enzyme)
stoichiometry N [1]: 2

Glutathione S-transferase (GST)-tagged Kat1+G (Kluyveromyces lactis hAT-transposase 1) (enzyme)
stoichiometry N [2]: 6

non-tagged Kat1 (GST-tag cleaved from GST-Kat1 with thrombin) (enzyme)
stoichiometry N [3]: 6
